In patent publication US20160024200A1 (published 2016):

Legend:
[1] = molecular target: T1, human granulocyte macrophage colony-stimulating factor (GM-CSF) (human, UniProt P04141 18-144); experiment: cell-based or functional assay
[2] = molecular target: T1, human granulocyte macrophage …; experiment: cell-based or functional assay; remark: listed apart in the source
[3] = molecular target: T1, human granulocyte macrophage …; experiment: cell-based or functional assay; remark: listed apart in the source
[4] = molecular target: T1, human granulocyte macrophage …; experiment: SPR, Biacore 3000, mAb captured on anti-human IgG, GM-CSF as analyte, 25 C
Description: The SPR experiments were performed at 25° C. on a Biacore 3000 (GE Healthcare, Piscataway, N.J.) using a CM5 sensor chip and HBS-P (10 mM HEPES, pH 7.4, 150 mM NaCl, 0.01% P-20) or HBS-EP (10 mM HEPES, pH 7.4, 150 mM NaCl, 3 mM EDTA, 0.01% P-20). Anti-human IgG (Fc) (GE Healthcare) or anti-human IgG (Southern Biotech, cat. #2040-01) was immobilized similarly on the experimental and reference flow cells using standard amine coupling. […] GM-CSF made in-house or purchased (Genscript, Cat. #Z00349), was injected over the mAb-coated cell and reference cell at the following concentrations: 100, 50, 25, 12.5, 6.25, 3.12, 1.5 and 0.8 nM. The flow rate was 30 μL/min and triplicate blank injections and replicate injections of the 12.5 nM GM-CSF were included to account for any drift and to ensure assay reproducibility. […] To regenerate the capture surface, two 30 sec pulses of a 2:1 mixture of glycine (pH 2) to 3 M MgCI was utilized. All data were double reference subtracted in that they were subtracted both from the reference cell and from a blank injection. Data were fit to a 1:1 model with (for those with very fast on-rates) or without a mass transport term using the Biacore 3000 evaluation software.

T1 sequence (P04141 18-144 limits assumed): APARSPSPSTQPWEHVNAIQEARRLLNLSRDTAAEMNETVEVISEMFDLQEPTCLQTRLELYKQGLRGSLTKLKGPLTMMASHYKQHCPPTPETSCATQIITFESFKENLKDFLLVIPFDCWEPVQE

B1: F1 human monoclonal antibody against GM-CSF (antibody, V domains shown)
VH: QVQLQESGPGVVKPSETLSLTCSVSDSAIRKYYWSWIRQPPGQGLEYIGYIYASGSSFYNPSFKSRVSMSVDATNNQFYLKLTSVTAADTAVYYCAAITGTTDLWGRGTLVTVSS
VL: DIQMTQSPSSVSASVGDRVTITCRASQGINRRLAWYQQKPGKAPKRLIYAVSTLQSGVPSRFNGSGSGTDFTLTVNNVQPDDLAMYFCLQSNNYPLTFGGGTKVEIK
notes: also called F1 antibody; purified F1
In the case of B1, the “IC50, TF-1 assay” value [1] is reported as < 1 ng/mL, the “IC50, TF-1 assay (200 pg/mL GM-CSF)” value [1] is reported as 0.7 to 0.8 ng/mL and the “IC50 (ng/mL), TF-1 assay” value [2] is reported as 0.8 ng/mL. For the same binder, the “IC50 (read off the curve); CD11b on human neutrophils in whole blood with 10 ng/mL GM-CSF (FACS), % inhibition” value [3] was ~50 ng/mL, the Kd [4] was 0.12 nM and the koff [4] was 0.0001 s⁻¹. The kon [4] was 830000 M⁻¹ s⁻¹.
